Measured values reported in US20090307790.

Assays:
[1] = target: Rac1, produced as GST-fusion protein in E. coli BL21 [GST: P08515]
[2] = target: RhoA, produced as GST-fusion protein in E. coli BL21 [GST: P08515]
[3] = target: cdc42, produced as GST-fusion protein in E. coli BL21 [GST: P08515]

B1: catalytic domain of wild type Tagap1, produced as GST-fusion protein in E. coli BL21 (protein)
chain: QPLSIICGENDTLPRPIQDILTILCLKGPSTEGIFRKAASEKARKELKEGLNCGVSVNLKQLPVHLLAVVFKDFLRGIPLKLLSCDLFEDWMGALEKPTEEDRIEALKQVAGGLPRPNLLLLRHLLYVLHLISKNAEVNKMDSSNLAICIGPNMLTLKNDQSLSFQAQKDLNNKVKILVEFLIDNCFEIF
GTPase activity of Rac1 (in vitro GAP assay) [1]: hardly (Rac1) stimulated | GTPase activity of RhoA (GAP-activity assay, FIG. 2e) [2]: Tagap1 enhances the GTPase activity of RhoA | GTPase activity of RhoA (in vitro GAP assay) [2]: the GTPase activity of RhoA was strongly enhanced by the GAP domain of Tagap1 | GTPase activity of Cdc42 (in vitro GAP assay) [3]: only mildly (Cdc42) ... stimulated
